Values belong to the binder of their own block, whether it stands above or below them.
Tests used:
[1] = biological target: T1, human MAdCAM protein (human, UniProt Q13477 19-317, limits assumed); test: Octet
T1 construct: also called soluble monomeric human MAdCAM; recombinant human MAdCAM
T1 sequence (looked up): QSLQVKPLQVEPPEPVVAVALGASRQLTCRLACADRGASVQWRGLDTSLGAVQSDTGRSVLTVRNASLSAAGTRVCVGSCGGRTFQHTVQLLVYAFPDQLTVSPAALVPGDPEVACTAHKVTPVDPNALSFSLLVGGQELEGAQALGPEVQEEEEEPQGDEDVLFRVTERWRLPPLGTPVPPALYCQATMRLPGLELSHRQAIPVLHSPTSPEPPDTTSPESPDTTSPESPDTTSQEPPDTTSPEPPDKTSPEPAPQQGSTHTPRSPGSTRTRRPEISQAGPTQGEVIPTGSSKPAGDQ

[2] = biological target: T2, recombinant mouse MAdCAM-1 (mouse, UniProt Q61826 22-364, limits assumed); test: Octet
T2 construct: also called mMAdCAM-1
T2 sequence (looked up): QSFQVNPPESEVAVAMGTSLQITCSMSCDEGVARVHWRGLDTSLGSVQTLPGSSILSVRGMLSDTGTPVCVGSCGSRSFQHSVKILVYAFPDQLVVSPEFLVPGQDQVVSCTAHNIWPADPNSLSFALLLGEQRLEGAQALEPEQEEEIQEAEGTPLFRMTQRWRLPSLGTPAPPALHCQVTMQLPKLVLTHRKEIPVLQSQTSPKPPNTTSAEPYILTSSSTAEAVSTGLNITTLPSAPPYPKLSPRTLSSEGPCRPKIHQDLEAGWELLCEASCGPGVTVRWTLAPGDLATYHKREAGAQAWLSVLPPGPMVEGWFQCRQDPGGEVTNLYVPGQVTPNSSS

[3] = biological target: T3, human MAdCAM expressed on cells (human, UniProt Q13477 19-382); test: cell binding
T3 construct: whole, on cells
T3 sequence (looked up): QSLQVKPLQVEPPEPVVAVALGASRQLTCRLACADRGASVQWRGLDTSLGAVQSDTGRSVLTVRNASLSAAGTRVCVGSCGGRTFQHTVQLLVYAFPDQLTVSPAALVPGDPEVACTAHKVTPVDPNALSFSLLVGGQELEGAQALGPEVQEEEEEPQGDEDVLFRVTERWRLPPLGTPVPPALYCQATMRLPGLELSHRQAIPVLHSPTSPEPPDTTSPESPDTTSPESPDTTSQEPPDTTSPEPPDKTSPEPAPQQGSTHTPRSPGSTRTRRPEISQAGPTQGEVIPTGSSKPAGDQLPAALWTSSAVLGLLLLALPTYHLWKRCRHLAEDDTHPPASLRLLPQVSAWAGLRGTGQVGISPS

[4] = biological target: T4, mouse MAdCAM expressed on cells (mouse, UniProt Q61826 22-405); test: cell binding
T4 construct: whole, on cells
T4 sequence (looked up): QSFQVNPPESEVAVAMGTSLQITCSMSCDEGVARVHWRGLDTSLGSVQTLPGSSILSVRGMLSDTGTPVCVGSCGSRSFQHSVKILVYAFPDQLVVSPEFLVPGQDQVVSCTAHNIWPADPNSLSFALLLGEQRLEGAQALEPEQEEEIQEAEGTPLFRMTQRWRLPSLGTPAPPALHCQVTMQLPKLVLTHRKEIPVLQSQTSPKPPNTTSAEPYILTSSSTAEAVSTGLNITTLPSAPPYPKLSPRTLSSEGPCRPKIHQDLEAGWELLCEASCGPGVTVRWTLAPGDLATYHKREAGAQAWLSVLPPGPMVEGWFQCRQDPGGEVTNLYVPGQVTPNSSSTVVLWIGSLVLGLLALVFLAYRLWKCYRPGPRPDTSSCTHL

binding result [1]: binds
binding result [2]: binds
binding result [3]: binds
binding result [4]: binds
B1: MAdCAM antibody Table 1 clone 63 (scFv)
scFv: EVQLLESGGGLVKPGGSLRLSCAASGFTFDDYAMHWVRQAPGKGLEWVASITSSSAFIDYAASVKGRFTISRDDSKNTLYLQMNSLKTEDTAVYYCARERVDWNSYFDLWGRGTLVTVSSGGGGSGGGGSGGGGSGGGGSEIVMTQSPATLSVSPGERATLSCRASQGISNSYLAWYQQKPGQAPRLLIYGASTRATGIPARFSGSGSGTEFTLTISSLQSEDFAVYYCQQYYTYPPTFGPGTKVDIK

binding result [1]: binds
binding result [2]: binds
binding result [3]: binds
binding result [4]: binds
B2: MAdCAM antibody Table 1 clone 4 (scFv)
scFv: QVQLVQSGAEVKKPGASVKVSCKASGGTFSSYAISWVRQAPGQGLEWMGSINPSGDTTSYAQKFQGRVTMTRDTSTSTVYMELSSLRSEDTAVYYCAKDKAQWLVGYFDYWGQGTLVTVSSGGGGSGGGGSGGGGSGGGGSDIQMTQSPSSLSASVGDRVTITCQASQDISNSLNWYQQKPGKAPKLLIYAASSLQSGVPSRFSGSGSGTDFTLTISSLQPEDFATYYCQQSYSSVITFGQGTKVEIK

binding result [1]: binds
binding result [2]: binds
binding result [3]: binds
binding result [4]: binds
B3: MAdCAM antibody Table 1 clone 59 (scFv)
scFv: EVQLLESGGGLVQPGGSLRLSCAASGFTFSDFWMHWVRQAPGKGLEWISYISGDSGYTNYADSVKGRFTISRDNSKNTLYLQMNSLRAEDTAVYYCARDRPYYYYMDVWGKGTTVTVSSGGGGSGGGGSGGGGSGGGGSDIQMTQSPSSLSASVGDRVTITCRASQSVSRSLAWYQQKPGKAPKLLIYAASSLQSGVPSRFSGSGSGTDFTLTISSLQPEDFATYYCQQYKSYPVTFGQGTKVEIK

binding result [1]: binds
binding result [2]: binds
binding result [3]: binds
binding result [4]: binds
B4: MAdCAM antibody Table 1 clone 5 (scFv)
scFv: EVQLLESGGGLVQPGGSLRLSCAASGFTFSSYWMHWVRQAPGKGLEWVSSISPGGSNIDYADSVKGRFTISRDNSKNTLYLQMNSLRAEDTAVYYCAREVQLSHYDYWGQGTLVTVSSGGGGSGGGGSGGGGSGGGGSDIQMTQSPSSLSASVGDRVTITCRASQGISNSLAWYQQKPGKAPKLLIYGASSLQSGVPSRFSGSGSGTDFTLTISSLQPEDFATYYCQQANSFPFTFGQGTKVEIK

binding result [1]: binds
binding result [2]: no binding
binding result [3]: binds
binding result [4]: no binding
B5: MAdCAM antibody Table 1 clone 23 (scFv)
scFv: EVQLLESGGGLVQPGGSLRLSCAASGFTFSSYAMHWVRQAPGKGLEWVSGISGSGGSAYYADSVKGRFTISRDNSKNTLYLQMNSLRAEDTAVYYCATSQAPVDYYYYGMDVWGQGTTVTVSSGGGGSGGGGSGGGGSGGGGSDIQMTQSPSSLSASVGDRVTITCRASQSISSWLAWYQQKPGKAPKLLIYAASNLQRGVPSRFSGSGSGTDFTLTISSLQPEDFATYYCQQSYSIPITFGQGTKVEIK

binding result [1]: binds
binding result [2]: no binding
binding result [3]: binds
binding result [4]: no binding
B6: MAdCAM antibody Table 1 clone 20 (scFv)
scFv: EVQLLESGGGLVQPGGSLRLSCAASGFTFDDYAMHWVRQAPGKGLEWVSYIDTSSSHLYYADSVKGRFTISRDNSKNTLYLQMNSLRAEDTAVYYCARDEAAAGYYGMDVWGQGTTVTVSSGGGGSGGGGSGGGGSGGGGSDIQMTQSPSSLSASVGDRVTITCQAGQDISNYLNWYQQKPGKAPKLLIYDASNLETGVPSRFSGSGSGTDFTLTISSLQPEDFATYYCQQTYSTPITFGQGTKLEIK

binding result [1]: binds
binding result [2]: binds
binding result [3]: binds
binding result [4]: binds
B7: MAdCAM antibody Table 1 clone 2 (scFv)
scFv: QVQLVQSGAEVKKPGASVKVSCKASGYPFIGYYLHWVRQAPGQGLEWMGIINPSGGSTSYAQKFQGRVTMTRDTSTSTVYMELSSLRSEDTAVYYCAREGRLSYGMDAWGQGTLVTVSSGGGGSGGGGSGGGGSGGGGSDIQMTQSPSSLSASVGDRVTITCRASQSISSYLAWYQQKPGKAPKLLIYGASTLESGVPSRFSGSGSGTDFTLTISSLQPEDFATYYCQQTWGPPFTFGQGTKLEIK

binding result [1]: binds
binding result [2]: no binding
binding result [3]: binds
binding result [4]: no binding
B8: MAdCAM antibody Table 1 clone 6 (scFv)
scFv: EVQLLESGGGLVQPGGSLRLSCAASGFTFNNYAFHWVRQAPGKGLEWVSRINSYGTSTTYADSVKGRFTISRDNSKNTLYLQMNSLRAEDTAVYYCAREGPVAGYWYFDLWGQGTLVTVSSGGGGSGGGGSGGGGSGGGGSDIQMTQSPSSLSASVGDRVTITCRASQIIGTNLAWYQQKPGKAPKLLIYGASSLQSGVPSRFSGSGSGTDFTLTISSLQPEDFATYYCQQSYRLPFTFGQGTKVEIK

— patent US20230235004A1 (published 2023)
